{
  "source": "patent US20090068214A1",
  "target": "HLA-A2 on T2 cells, P30376",
  "data": [
    {"binder": "ALQAIELQL (modifications not checked)", "note": "[HPV 16 E2 69-77 peptide (…)]", "values": [
      {"measurement": "peptide concentration at fluorescence index (FI) 0.5", "result": 50, "unit": "µM"}
    ]}
  ]
}
